Measurements published in patent US20230234991A1, “SELF-ASSEMBLED PEPTIDE NANORODS AND USES THEREOF” (TRANSFERT PLUS, SOCIÉTÉ EN COMMANDITE, priority 2020, published 2023).
“And” between values parts separate entries of the source, which are not always exact repeats. Equal values may be shown once. “Also recorded” adds a separate entry of the source.

Legend:
[1] = Atomic force microscopy of the assemblies; format: physicochemical
[2] = Zeta potential; format: physicochemical
[3] = Negative-stain transmission electron microscopy of the assemblies; format: physicochemical
[4] = target: T1, TLR2 (Mus musculus, UniProt Q9QUN7); test: TLR-2 stimulation, SEAP activity in HEK-Blue mTLR2 cells; format: cell-based; conditions: HEK-Blue mTLR2 cells, 16 h
T1 construct: host or cells: HEK293 (HEK-Blue mTLR2)
Method: TLR-2 stimulation. HEK293 cells stably co-transfected with mTLR2 and SEAP (HEK-Blue mTLR2 cells, InvivoGen) were cultivated in Dulbecco's Modified Eagle's Medium supplemented with 4.5 g/I glucose, 10% (v/v) fetal bovine serum, 100 U/ml penicillin, […], […], 2 mM L-glutamine. At 50-80% confluency, cells were seeded in Hek-Blue detection medium (InvivoGen) at a density of 50,000 cells/well in a 96-well plate containing NRs and controls. After 16 h incubation at 37° C. in 5% CO2, absorbance was monitored at 630 nm.

[5] = tested on: HEK293T cells
[6] = Thermal denaturation monitored by CD spectroscopy; format: physicochemical; conditions: CD at 222, 212 and 205 nm
[7] = tested on: dendritic-like cells (DC2.4)
[8] = tested on: INS-1E cells; format: cell-based, Rat; conditions: 24 h, 50×10^−6 m
[9] = tested on: macrophage cells (J774A.1)

T1 sequence (Q9QUN7 25-784): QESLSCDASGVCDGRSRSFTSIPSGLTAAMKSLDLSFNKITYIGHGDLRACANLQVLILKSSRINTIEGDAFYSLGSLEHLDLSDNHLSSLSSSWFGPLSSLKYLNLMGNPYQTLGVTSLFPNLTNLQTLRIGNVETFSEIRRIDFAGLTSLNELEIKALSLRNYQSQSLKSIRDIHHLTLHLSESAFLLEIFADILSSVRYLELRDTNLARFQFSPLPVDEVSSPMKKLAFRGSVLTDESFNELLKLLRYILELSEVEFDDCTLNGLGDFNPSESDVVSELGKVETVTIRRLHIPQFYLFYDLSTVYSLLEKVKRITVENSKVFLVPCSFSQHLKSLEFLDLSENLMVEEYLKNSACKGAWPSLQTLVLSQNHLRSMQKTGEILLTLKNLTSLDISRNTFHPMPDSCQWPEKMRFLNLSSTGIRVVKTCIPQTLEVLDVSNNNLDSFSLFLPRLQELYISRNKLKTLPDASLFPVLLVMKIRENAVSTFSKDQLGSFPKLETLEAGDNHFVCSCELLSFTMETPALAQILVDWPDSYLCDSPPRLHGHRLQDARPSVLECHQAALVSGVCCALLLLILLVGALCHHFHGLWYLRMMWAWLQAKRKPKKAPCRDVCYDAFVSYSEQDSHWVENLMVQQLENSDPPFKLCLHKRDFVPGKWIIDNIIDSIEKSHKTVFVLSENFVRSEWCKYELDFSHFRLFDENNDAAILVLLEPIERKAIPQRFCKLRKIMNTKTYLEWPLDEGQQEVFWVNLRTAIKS

Ac-KGSGSSNNFGAILSS-NH2 [Ac-KI10]
Heigth [1]: 7.0 nm and 7.0 ± 0.7 nm
Surface charge [2]: 49 ± 5 mV
Morphology ([3]; pH 7.4): rope-like fibrils; also recorded: thick rope-like

HGSGSSNNFGAILSS [HI10]
Morphology of variants of the KI10 sequence [1]: do not adopt a short-like rod confirmation

Pam2CSK4
SEAP activity [4]: SEAP activity was measured

RGSGSSNNFGAILSS [RI10]
Morphology of variants of the KI10 sequence [1]: do not adopt a short-like rod confirmation

islet amyloid polypeptide (KCNTATCATQRLANFLVHSSNNFGAILSSTNVGSNTY; Islet amyloid polypeptide; UniProt P10997 34-70, looked up) [IAPP, amyloidogenic peptide used as classical amyloid and positive control of cytotoxicity]
calcein-AM/ethidium homodimer-1 staining [5]: increase of ethidium homodimer-1 and a decrease of calcein-AM staining
Thermal denaturation [6]: no melt observed
Cytotoxicity [7]: high decrease of viability
calcein-AM/ethidium homodimer-1 staining [8]: increase of ethidium homodimer-1 and a decrease of calcein-AM staining
Cytotoxicity [9]: high decrease of viability
Morphology ([3]; Tris 50×10^−3 M pH 7.4, rotary agitation 48 h, 150×10^−6 M (KKI10 500×10^−6 M)): polymorphic twisted ribbons and fibrils
